Test results: publication PMC2793518, “Fiber Mediated Receptor Masking in Non-Infected Bystander Cells Restricts Adenovirus Cell Killing Effect but Promotes Adenovirus Host Co-Existence” (PLoS ONE, 2009)

Molecular target: T1, CAR on A549 cells (human (endogenous in A549), UniProt P78310 20-365)
T1 sequence: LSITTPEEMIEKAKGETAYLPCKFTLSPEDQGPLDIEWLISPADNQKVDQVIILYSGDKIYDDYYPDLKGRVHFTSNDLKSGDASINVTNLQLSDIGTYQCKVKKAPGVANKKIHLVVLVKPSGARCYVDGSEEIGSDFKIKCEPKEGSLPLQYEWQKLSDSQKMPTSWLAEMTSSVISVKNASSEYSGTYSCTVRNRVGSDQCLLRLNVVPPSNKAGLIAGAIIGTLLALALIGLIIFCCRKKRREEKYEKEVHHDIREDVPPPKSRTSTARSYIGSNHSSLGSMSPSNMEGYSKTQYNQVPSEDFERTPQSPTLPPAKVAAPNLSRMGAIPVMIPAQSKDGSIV
Assay: cell-based or functional assay

B1: Ad5 fiber (free trimeric fiber molecules released from Ad5-CRAD or WT Ad5 infected cells) (natural protein)
chain: MKRARPSEDTFNPVYPYDTETGPPTVPFLTPPFVSPNGFQESPPGVLSLRLSEPLVTSNGMLALKMGNGLSLDEAGNLTSQNVTTVSPPLKKTKSNINLEISAPLTVTSEALTVAAAAPLMVAGNTLTMQSQAPLTVHDSKLSIATQGPLTVSEGKLALQTSGPLTTTDSSTLTITASPPLTTATGSLGIDLKEPIYTQNGKLGLKYGAPLHVTDDLNTLTVATGPGVTINNTSLQTKVTGALGFDSQGNMQLNVAGGLRIDSQNRRLILDVSYPFDAQNQLNLRLGQGPLFINSAHNLDINYNKGLYLFTASNNSKKLEVNLSTAKGLMFDATAIAINAGDGLEFGSPNAPNTNPLKTKIGHGLEFDSNKAMVPKLGTGLSFDSTGAITVGNKNNDKLTLWTTPAPSPNCRLNAEKDAKLTLVLTKCGSQILATVSVLAVKGSLAPISGTVQSAHLIIRFDENGVLLNNSFLDPEYWNFRNGDLTEGTAYTNAVGFMPNLSAYPKSHGKTAKSNIVSQVYLNGDKTKPVTLTITLNGTQETGDTTPSAYSMSFSWDWSGHNYINEIFATSSYTFSYIAQE
  percent GFP+ cells 24 hr after super-infection with Ad5-PGK-GFP (MOI 10) of A549 cultures infected 6 days before with Ad5-CRAD (MOI 1.0), relative to cultures without prior Ad5-CRAD infection: 60 % of control
